Target: T1, biotinylated AFP158/HLA-A*02:01 tetramer (human, biotinylated via the BSP peptide linked to the C-terminal end of the HLA-A*02:01 extracellular domain)
T1 construct: also called AFP158 tetramer; not shown: BSP peptide (BirA biotinylation site) at the C-terminus
Assay: flow cytometry, AFP158/HLA-A*02:01 tetramer staining of CAR-transduced T cells

B1: Anti-AFP-CD28z-CAR (other)
chain: QSVLTQPASVSGSPGQSITISCTGTSSDVGGYNYVSWYQQHPGKAPKLMIYDVNNRPSEVSNRFSGSKSGNTASLTISGLQAEDEADYYCSSYTTGSRAVFGGGTKLTVLGSRGGGGSGGGGSGGGGSLEMAEVQLVQSGAEVKKPGESLTISCKASGYSFPNYWITWVRQMSGGGLEWMGRIDPGDSYTTYNPSFQGHVTISIDKSTNTAYLHWNSLKASDTAMYYCARYYVSLVDIWGQGTLVTVSSEQKLISEEDLAAAIEVMYPPPYLDNEKSNGTIIHVKGKHLCPSPLFPGPSKPFWVLVVVGGVLACYSLLVTVAFIIFWVRSKRSRLLHSDYMNMTPRRPGPTRKHYQPYAPPRDFAAYRSRVKFSRSADAPAYQQGQNQLYNELNLGRREEYDVLDKRRGRDPEMGGKPRRKNPQEGLYNELQKDKMAEAYSEIGMKGERRRGKGHDGLYQGLSTATKDTYDALHMQALPPR
notes: Chimeric antigen receptor on transduced primary human T cells: anti-AFP/MHC scFv, myc tag, CD28 TM, CD28 costimulatory domain, CD3zeta; also called αAFP -CD28z CAR
Q: Does B1 bind?
A: binds

B2: Anti-AFP-CD30z-CAR (other)
chain: QSVLTQPASVSGSPGQSITISCTGTSSDVGGYNYVSWYQQHPGKAPKLMIYDVNNRPSEVSNRFSGSKSGNTASLTISGLQAEDEADYYCSSYTTGSRAVFGGGTKLTVLGSRGGGGSGGGGSGGGGSLEMAEVQLVQSGAEVKKPGESLTISCKASGYSFPNYWITWVRQMSGGGLEWMGRIDPGDSYTTYNPSFQGHVTISIDKSTNTAYLHWNSLKASDTAMYYCARYYVSLVDIWGQGTLVTVSSEQKLISEEDLAAATGAPPLGTQPDCNPTPENGEAPASTSPTQSLLVDSQASKTLPIPTSAPVALSSTGKPVLDAGPVLFWVILVLVVVVGSSAFLLCHRRACRKRIRQKLHLCYPVQTSQPKLELVDSRPRRSSTQLRSGASVTEPVAEERGLMSQPLMETCHSVGAAYLESLPLQDASPAGGPSSPRDLPEPRVSTEHTNNKIEKIYIMKADTVIVGTVKAELPEGRGLAGPAEPELEEELEADHTPHYPEQETEPPLGSCSDVMLSVEEEGKEDPLPTAASGKRVKFSRSADAPAYQQGQNQLYNELNLGRREEYDVLDKRRGRDPEMGGKPRRKNPQEGLYNELQKDKMAEAYSEIGMKGERRRGKGHDGLYQGLSTATKDTYDALHMQALPPR
notes: Chimeric antigen receptor on transduced primary human T cells: anti-AFP/MHC scFv, myc tag, CD30 TM, CD30 costimulatory domain, CD3zeta; also called αAFP -CD30z CAR
Q: Does B2 bind?
A: binds

— patent US20220265715A1 (EUREKA THERAPEUTICS, published 2022)
